From article doi:10.1101/283192
Each block holds one binder with its values, some of them ahead of it.

Key:
Conditions in all cases: remark: other sources report otherwise
[1] = target: T1, CHIP (carboxyl terminus of heat shock 70-interacting protein), wild type, His-tagged recombinant (human), Q9UNE7; experiment: SEC-MALS
T1 chain: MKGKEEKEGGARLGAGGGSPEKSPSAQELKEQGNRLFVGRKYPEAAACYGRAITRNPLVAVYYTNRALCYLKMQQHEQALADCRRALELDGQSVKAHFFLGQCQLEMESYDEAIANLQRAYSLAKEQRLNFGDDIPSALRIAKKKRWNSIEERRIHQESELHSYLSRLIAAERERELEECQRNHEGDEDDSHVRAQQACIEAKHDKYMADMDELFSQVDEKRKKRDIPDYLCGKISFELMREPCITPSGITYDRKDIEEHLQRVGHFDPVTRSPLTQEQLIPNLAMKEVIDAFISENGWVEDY

[2] = target: T2, CHIP-K30A, His-tagged recombinant (human), Q9UNE7; experiment: SEC-MALS
T2 chain: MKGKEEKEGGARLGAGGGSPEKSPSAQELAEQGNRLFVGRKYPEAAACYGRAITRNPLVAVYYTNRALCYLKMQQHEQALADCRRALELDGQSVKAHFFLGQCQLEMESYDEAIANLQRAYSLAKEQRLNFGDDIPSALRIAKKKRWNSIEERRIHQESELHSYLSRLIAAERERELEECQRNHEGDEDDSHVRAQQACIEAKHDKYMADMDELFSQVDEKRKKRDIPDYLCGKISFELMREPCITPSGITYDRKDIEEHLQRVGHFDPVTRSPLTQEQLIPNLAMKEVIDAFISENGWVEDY

[3] = target: T3, myc-CHIP-K30A (pcDNA3-mycCHIP-K30A) (human), Q9UNE7; experiment: native gel or EMSA
T3 chain: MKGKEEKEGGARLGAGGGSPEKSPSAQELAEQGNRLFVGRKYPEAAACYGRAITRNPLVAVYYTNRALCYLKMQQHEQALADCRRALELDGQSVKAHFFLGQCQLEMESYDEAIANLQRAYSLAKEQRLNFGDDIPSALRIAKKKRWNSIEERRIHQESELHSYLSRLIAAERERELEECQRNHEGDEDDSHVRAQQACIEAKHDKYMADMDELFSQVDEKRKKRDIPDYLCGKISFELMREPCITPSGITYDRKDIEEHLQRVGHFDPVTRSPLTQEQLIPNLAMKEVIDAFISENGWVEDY

[4] = target: T4, myc-CHIP wild type (pcDNA3-mycCHIP) (human), Q9UNE7; experiment: native gel or EMSA
T4 chain: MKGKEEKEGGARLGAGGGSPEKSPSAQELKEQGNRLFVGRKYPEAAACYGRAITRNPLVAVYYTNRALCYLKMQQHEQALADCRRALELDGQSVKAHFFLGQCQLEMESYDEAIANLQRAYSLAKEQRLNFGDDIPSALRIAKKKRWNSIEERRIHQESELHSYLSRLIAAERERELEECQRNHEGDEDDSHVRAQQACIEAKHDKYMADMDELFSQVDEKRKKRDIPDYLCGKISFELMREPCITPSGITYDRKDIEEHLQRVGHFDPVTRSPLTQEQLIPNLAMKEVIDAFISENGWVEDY

stoichiometry N [1]: 2
B1: CHIP (carboxyl terminus of heat shock 70-interacting protein), wild type, His-tagged recombinant, Q9UNE7 1-303 (natural protein)
chain: MKGKEEKEGGARLGAGGGSPEKSPSAQELKEQGNRLFVGRKYPEAAACYGRAITRNPLVAVYYTNRALCYLKMQQHEQALADCRRALELDGQSVKAHFFLGQCQLEMESYDEAIANLQRAYSLAKEQRLNFGDDIPSALRIAKKKRWNSIEERRIHQESELHSYLSRLIAAERERELEECQRNHEGDEDDSHVRAQQACIEAKHDKYMADMDELFSQVDEKRKKRDIPDYLCGKISFELMREPCITPSGITYDRKDIEEHLQRVGHFDPVTRSPLTQEQLIPNLAMKEVIDAFISENGWVEDY

stoichiometry N [2]: 2
B2: CHIP-K30A, His-tagged recombinant, Q9UNE7 1-303 (natural protein)
chain: MKGKEEKEGGARLGAGGGSPEKSPSAQELAEQGNRLFVGRKYPEAAACYGRAITRNPLVAVYYTNRALCYLKMQQHEQALADCRRALELDGQSVKAHFFLGQCQLEMESYDEAIANLQRAYSLAKEQRLNFGDDIPSALRIAKKKRWNSIEERRIHQESELHSYLSRLIAAERERELEECQRNHEGDEDDSHVRAQQACIEAKHDKYMADMDELFSQVDEKRKKRDIPDYLCGKISFELMREPCITPSGITYDRKDIEEHLQRVGHFDPVTRSPLTQEQLIPNLAMKEVIDAFISENGWVEDY

stoichiometry N [3]: 2
B3: myc-CHIP-K30A (pcDNA3-mycCHIP-K30A), Q9UNE7 1-303 (natural protein)
chain: MKGKEEKEGGARLGAGGGSPEKSPSAQELAEQGNRLFVGRKYPEAAACYGRAITRNPLVAVYYTNRALCYLKMQQHEQALADCRRALELDGQSVKAHFFLGQCQLEMESYDEAIANLQRAYSLAKEQRLNFGDDIPSALRIAKKKRWNSIEERRIHQESELHSYLSRLIAAERERELEECQRNHEGDEDDSHVRAQQACIEAKHDKYMADMDELFSQVDEKRKKRDIPDYLCGKISFELMREPCITPSGITYDRKDIEEHLQRVGHFDPVTRSPLTQEQLIPNLAMKEVIDAFISENGWVEDY

stoichiometry N [4]: 2
B4: myc-CHIP wild type (pcDNA3-mycCHIP), Q9UNE7 1-303 (natural protein)
chain: MKGKEEKEGGARLGAGGGSPEKSPSAQELKEQGNRLFVGRKYPEAAACYGRAITRNPLVAVYYTNRALCYLKMQQHEQALADCRRALELDGQSVKAHFFLGQCQLEMESYDEAIANLQRAYSLAKEQRLNFGDDIPSALRIAKKKRWNSIEERRIHQESELHSYLSRLIAAERERELEECQRNHEGDEDDSHVRAQQACIEAKHDKYMADMDELFSQVDEKRKKRDIPDYLCGKISFELMREPCITPSGITYDRKDIEEHLQRVGHFDPVTRSPLTQEQLIPNLAMKEVIDAFISENGWVEDY
